Series [1] deals with HCMV glycoprotein B ectodomain ΔNgB-glyco (HCMV (Merlin strain)) (UniProt F5HB53).
Series [2] concerns the target 1G2 IgG (neutralizing human monoclonal antibody) (human). Nature of the series: SPR.
Series [3] has as its target 1G2 IgG light chain Y50A (human). Nature of the series: SPR.
The target in series [4] is 1G2 IgG heavy chain R31S (human). Briefly: SPR.
Series [5] has as its target 1G2 IgG heavy chain Y109A (human). Briefly: SPR.
The target of series [6] is 1G2 IgG light chain R51A (human). Nature of the series: SPR.
The target in series [7] is 1G2 IgG heavy chain F104A (human). Nature of the series: SPR.
The target in series [8] is 1G2 IgG heavy chain S32A (human). Nature of the series: SPR.
The target in series [9] is 1G2 IgG heavy chain Y103A (human). Nature of the series: SPR.
For series [10], the target named is 1G2 IgG heavy chain N102A (human). Briefly: SPR.
Series [11] deals with T1, HCMV glycoprotein B ectodomain gB-698glyco (Human cytomegalovirus, Merlin, UniProt F5HB53, Ile156His | His157Arg | Trp240Asn | Tyr242Thr | Cys246Ser | Arg457Ser | …).
T1 construct: also called postfusion gB; soluble gB ectodomain; source: CHO lec- cells, stably expressed, secreted, purified (Ni-NTA, SEC)
Nature of the series: co-IP; soluble gB ectodomain (gB-698glyco) in 1% NP40, incubated with 10 μg 1G2 for 16 h at 4 °C, Dynabeads Protein A, blot with ITC88. Particulars: both partners purified.

For series [12], the target named is T2, HCMV virion gB (strain VR1814) (Human cytomegalovirus (HHV-5), strain …, UniProt Q69163, strain).
T2 construct: also called gB from virions; source: cushion-purified VR1814 virions, lysed in 1% NP40
Briefly: co-IP; cushion-purified VR1814 virions (500 μg) lysed in 1% NP40, incubated with 10 μg 1G2 for 16 h at 4 °C, Dynabeads Protein A, blot with ITC88. Particulars: one partner purified.

Series [13] addresses T3, full-length WT HCMV gB (HCMV (strain ), UniProt F5HB53).
T3 construct: also called FL-gB; membrane-anchored full-length gB; source: BHK cells electroporated with RNA encoding full-length gB, on the cell surface
Briefly: flow cytometry on cells; BHK cells electroporated with full-length gB RNA, surface stained with 1 μg antibody per sample, goat anti-human IgG Alexa Fluor 647; gated on viable, dsRNA+ cells. Particulars: one partner purified.

The target of series [14] is T3, full-length WT HCMV gB. Briefly: cell-based or functional assay.

Several values for one entry are separate records, joined by “and”; a condition that tells them apart may be missing. Identical values can stand only once.

“1G2 IgG (neutralizing human monoclonal antibody)”: the neutralisation EC50, HCMV TB40/E infection of ARPE-19 epithelial cells in series [1] is 0.1 µg/mL.

For the molecule “HCMV glycoprotein B ectodomain ΔNgB-glyco (from UniProt F5HB53 25-698) (domain or fragment)”, the Kd was 0.13 nM and 0.17 nM in series [2]; 0.33 nM in series [3]; 0.22 nM in [4]; 0.24 nM in series [5]; 0.16 nM in [6]; 1.53 nM in series [7]. For the same molecule, the figures for the Kd in series [8], in series [9] and in series [10] were 0.03 nM, 2.36 nM and 1.71 nM, respectively. Besides, the koff in series [2] was 3.75e-05 s⁻¹ and 6.36e-05 s⁻¹; in series [3] it was 0.000118 s⁻¹; in [4] it was 6.07e-05 s⁻¹; in series [5] it was 7.67e-05 s⁻¹; in [6] it was 5.11e-05 s⁻¹; in series [7], 0.00045 s⁻¹. Also, the figures for the dissociation rate constant (koff) in series [8], in series [9] and in series [10] were 1.06e-05 s⁻¹, 0.000766 s⁻¹ and 0.000526 s⁻¹, respectively. Further, the kon in series [2] is 295000 M⁻¹ s⁻¹ and 370000 M⁻¹ s⁻¹; in series [3] it was 357000 M⁻¹ s⁻¹; in series [4], 273000 M⁻¹ s⁻¹; in [5], 324000 M⁻¹ s⁻¹; in series [6], 327000 M⁻¹ s⁻¹; in series [7], 294000 M⁻¹ s⁻¹. In addition, the kon was determined as 396000 M⁻¹ s⁻¹ in series [8], 325000 M⁻¹ s⁻¹ in [9] and 306000 M⁻¹ s⁻¹ in series [10].

In series [2], “ΔNgB-glyco E292A (from UniProt F5HB53 25-698) (domain or fragment)” had a Kd of 0.82 nM, a koff of 0.000108 s⁻¹ and a kon of 132000 M⁻¹ s⁻¹.

In series [2], “ΔNgB-glyco F290A (from UniProt F5HB53 25-698) (domain or fragment)” returned a Kd of 3.79 nM, a koff of 0.000249 s⁻¹ and a kon of 66000 M⁻¹ s⁻¹.

In [2], “ΔNgB-glyco F297A (from UniProt F5HB53 25-698) (domain or fragment)” returned a Kd of 13.7 nM, a koff of 0.000267 s⁻¹ and a kon of 19000 M⁻¹ s⁻¹.

In series [2], “ΔNgB-glyco F298A (from UniProt F5HB53 25-698) (domain or fragment)” returned a Kd of 0.26 nM, an off-rate constant (koff) of 5.59e-05 s⁻¹ and a kon of 214000 M⁻¹ s⁻¹.

For “ΔNgB-glyco I299A (from UniProt F5HB53 25-698) (domain or fragment)”, in series [2], the Kd is 0.58 nM, the koff came out at 9e-05 s⁻¹ and the kon is 155000 M⁻¹ s⁻¹.

“ΔNgB-glyco N281A (from UniProt F5HB53 25-698) (domain or fragment)”: in series [2], the Kd is 0.21 nM, the koff turned out to be 4.57e-05 s⁻¹ and the kon was found to be 218000 M⁻¹ s⁻¹.

In series [2], “ΔNgB-glyco N284A (from UniProt F5HB53 25-698) (domain or fragment)” returned a Kd of 0.24 nM, a koff of 7.66e-05 s⁻¹ and a kon of 320000 M⁻¹ s⁻¹.

For “ΔNgB-glyco N286A (from UniProt F5HB53 25-698) (domain or fragment)”, in series [2], the Kd is 0.07 nM, the koff came out at 4.89e-05 s⁻¹ and the kon is 724000 M⁻¹ s⁻¹.

With “ΔNgB-glyco N293A/D295A (from UniProt F5HB53 25-698) (domain or fragment)”, in series [2], the Kd amounted to 0.35 nM, the koff stood at 8.43e-05 s⁻¹ and the kon is 240000 M⁻¹ s⁻¹.

With “ΔNgB-glyco T283A (from UniProt F5HB53 25-698) (domain or fragment)”, in series [2], the Kd worked out at 0.23 nM, the koff amounted to 6.99e-05 s⁻¹ and the kon was 310000 M⁻¹ s⁻¹.

In series [2], “ΔNgB-glyco Y280A (from UniProt F5HB53 25-698) (domain or fragment)” gave a Kd of 29.3 nM, a koff of 0.000195 s⁻¹ and a kon of 7000 M⁻¹ s⁻¹.

In [2], “ΔNgB-glyco YND-AAA (Y280A/N293A/D295A) (from UniProt F5HB53 25-698) (domain or fragment)” gave a Kd of 18.7 nM, a koff of 0.000392 s⁻¹ and a kon of 21000 M⁻¹ s⁻¹.

B1: 1G2 IgG (neutralizing human monoclonal antibody) (antibody, V domains shown)
VH: QLQLQESGPGLVKPSETLSLTCTVSGASIDRSTYYWGWIRQPPGKGLEWIANIYYNGRAVYSPSLKSRVTISVDTSKNQFSLKVRSLTAADTAVYYCATRWNYFFDFDYWGRGTLVTVSS
VL: QSVLTQPPSASGTPGQRVTISCSGSSSNIETNYVSWYQQFPGTAPKLLIYRNNQRPSGVPDRFSGSKSGTSASLAISGLRSEDEAEYYCGTWDDNSWVFGGGTKLTVL
notes: IgG1; also called 1G2 mAb; WT 1G2
On to B1, for which the binding result in series [11] was “binds”. The binding result in series [12] is “binds”. Besides, in the series with full-length WT HCMV gB [13], the binding result is “binds”. In addition, in the series with full-length WT HCMV gB [14], the “neutralisation EC50, gB on virus of HCMV strain 8816 (Ala287), ARPE-19 cells” value turned out to be 0.046 µg/mL; the “neutralisation EC50, gB on virus of HCMV strain 8819 (Ala287), ARPE-19 cells” value was 0.485 µg/mL; the “neutralisation EC50, gB on virus of HCMV strain 8819 (Ala287), NHDF cells” value is 0.85 µg/mL; the “neutralisation EC50, gB on virus of HCMV strain 8822 (Ala287), ARPE-19 cells” value is 0.319 µg/mL. In the series with full-length WT HCMV gB [14], the “neutralisation EC50, gB on virus of HCMV strain 8822 (Ala287), NHDF cells” value amounted to 0.485 µg/mL; the “neutralisation EC50, gB on virus of HCMV strain 8824 (Ala287), ARPE-19 cells” value was found to be 0.019 µg/mL; the “neutralisation EC50, gB on virus of HCMV strain 8824 (Ala287), NHDF cells” value was 0.043 µg/mL; the “neutralisation EC50, gB on virus of HCMV strain TM-28175 (Ala287), NHDF cells” value was determined as 0.138 µg/mL. Moreover, in the series with full-length WT HCMV gB [14], the “neutralisation EC50, gB on virus of HCMV strain TR (Ala287), ARPE-19 cells” value was determined as 0.248 µg/mL and the “neutralisation EC50, gB on virus of HCMV strain TR (Ala287), NHDF cells” value was determined as 0.303 µg/mL.

(Values after paper PMC4579600, “Structure of HCMV glycoprotein B in the postfusion conformation bound to a neutralizing human antibody” (Nature Communications, 2015).)
